Experimental data reported in patent US20260042834A1, “ANTI-CORTICOTROPIN-RELEASING HORMONE ANTIBODIES AND POLYCYSTIC OVARY SYNDROME” (HBM ALPHA THERAPEUTICS, INC., priority 2022, published 2026).

Assays:
[1] = tested on: constitutively high plasma ACTH in Mrap1 KO mice; test: Mrap1 KO mice constitutively high ACTH model; assay type: in vivo, mouse; settings: 20 mg/kg and 5 mg/kg, day 2 and day 16
Description: 8-10 week old wildtype female C57BL/6 mice were obtained from Charles River Laboratories. Mrap1 KO mice were obtained from Queen Mary University of London, UK. SSR125543A, a small molecule CRHR1 antagonist, was obtained from Axon Medchem (Cat #Axon 1799). Mouse Corticosterone (55-Corms-E01) and adrenocorticotropic hormone (ACTH) ELISA kits (21-ACTHU-E01) were obtained from ALPCO, USA. All procedures were carried out in accordance with the Guide for the Care and Use of Laboratory Animals of the National Institutes of Health. Protocols were approved by Charles River Laboratories Institutional Animal Care and Use Committee (IACUC).
To generate Mrap1 KO mice, Mrap1−/− male mice were bred with Mrap1+/− female mice. Corticosterone hormone replacement was performed by administering 50 μg/ml in drinking water to breeder cages when female mice were pregnant and their pregnancies palpable (approximately embryonic day 10). Drinking water was changed weekly, and treatment was stopped at weaning. Mice were uniquely identified with ear tags at the time of tail clipping to match future genotype with each mouse. DNA was extracted from tail tissue and used to genotype mice.
[…] On day 2 or 3, 14 and 28, 200 μl of blood was collected in EDTA tubes from the submandibular vein of each mouse. Plasma was separated using a refrigerated centrifuge (4° C. at 500×g for 10 min) and snap-frozen in dry ice for subsequent ACTH ELISA measurement.

human CRHR2 = test: CRH-induced luciferase reporter blocking assay, CHO-CRE-hCRHR2 cells; assay type: cell-based; settings: CHO-CRE-hCRHR2 cells, 0.1 nM CRH
How it was run: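 CHO-CRE reporter cells stably expressing mouse or human CRHR2 were treated with serially diluted antibodies (8 points, 1:4) plus CRH at final 5 nM (mCRHR2) or 0.1 nM (hCRHR2), 4-6 hours at 37° C. CRE-driven luciferase read by luminescence after 10 min with detection reagent.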

mouse CRHR2 = test: CRH-induced luciferase reporter blocking assay, CHO-CRE-mCRHR2 cells; assay type: cell-based; settings: CHO-CRE-mCRHR2 cells, 5 nM CRH
How it was run: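 CHO-CRE cells stably expressing mouse CRHR2 were seeded overnight, then given serially diluted antibodies (8 points, 1:4) together with CRH at 5 nM final. After 4–6 h at 37 °C, CRE-driven luciferase was read by Bio-Glo luminescence.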

IC50 (human CRHR2): 5.96 nM | IC50 (mouse CRHR2): 6.17 nM
B1: PR302038: humanized variant of Series 5 mAb PR301777; VH SEQ ID NO: 256, VL SEQ ID NO: 311 (antibody, V domains shown)
VH: EMQLVESGGGLVQPGGSLRLSCAASGFTFSNYWMNWVRQAPGKGLEWVAEIRLKSNNYATHYAESVKGRFTISRDDSKSSVYLQMNSLKTEDTAVYYCTVGTLVYWGQGTLVTVSS
VL: EIVLTQSPATLSLSPGERATLSCRASQSVSTSTYNYMHWFQQKPGQAPRLLIKFASNLESGIPARFSGSGSGTDFTLTISSLEPEDTAVYYCQHSWEIPYTFGQGTKLEIK
modifications: PR302036 VH, PR302038 VH, PR302041 VH; PR302031 VL, PR302038 VL, PR302045 VL, PR302052 VL, PR302066 VL
plasma ACTH concentrations in Mrap1 KO mice, dose dependence [1]: reduced plasma ACTH concentrations in Mrap1 KO mice, in a dose dependent manner
